These results are taken from the DeepSol protein solubility set.

This data set is described as follows: soluble on expression in E. coli; label from the status in PepcDB or PDB records.
As for “MKVEPYRLVVNEHQVNNTNSKENLKIVQLSDLHIKKDFNADRLDKVIQKTNEQNPDFIIFSGDLYDNYSQYNENEAVISKLKSLKAKYGKIAIWGNRDYGGGAVKEYANIMAESDFSLLRNENQVFTLDNGKKILFTGLDDALLGNPQFPSPNQMAETSYDILLTHEPDEVSQYQNKGYELILSGHSHGGQINVPLIPQIQKKATALMSHANNYTGGLYQLGANEKLYVNTGIGTTHLSARFGVAPEIAVLTFLEHHHHHH”, the “soluble on expression in E. coli” value was “not soluble”.

With “MGSDKIHHHHHHMSNQLENAKNLYLRGIRDGEIKEVHENYMGASYTQHSTGVPDEKEGFAAFFEDFFKRNPKREINIVRAIEDGNFVFVHVHQKLNDGEAEWVTADIFRSDENGRIVEHWDVIDAYPKTIDQTDPIYADFELTDLDKTEDNKKIVRRFLVDVFQNGEIDKFDDYVAANLIQHNQEIAQGGAAYKDYLVDKAVNYDFVFKVMGQGDYVVAYSKVWIAGQDYAHFDIYRLKDGKIVEHWDNKEVMPDKKDLTNLGKF”, the “soluble on expression in E. coli” value was “not soluble”.

“MLKKKVNNDAGKTFILISSSCSSCQKAIEYFKENNLSYTIENFYKKPISDKRFRDILSLSEDGTESLFSKRADQIRSNTNQSVEDLTIPELIKLIRERPSILRRPIIIQYNSSGIPKRMRIGYNAAEIKVFERSLMEPKVRTVKK”: the “soluble on expression in E. coli” value is recorded as “soluble”.

Take “MGSDKIHHHHHHMSQAKATFSTEHDLNTSEQQAFWQSVVQDTLITADGITLAYMMVKHPQAHTAIVLSSGRVESYLKYQELVFDLYQQGYSVYAIDHRGQGLSDRMTINPHMGHVRRFNDYIDDFALFMQKKVLPQNDKQLMLLGHSMGGAIGTLYLKQHPDIFTAAAFSAPMYGIKLPMPKAFVRWLASKLDTTLNGGEPNYVLGGQNYKPVPFKGNELTHCQSRYQAYRDLYDAAPKLQLGSPTNRWLTESLDAADTCVLATAQIRTPILILQASEDKIVDNAAQNLAVSTHCQLKVIAGAAHEIFMEKDAYRNQALNYALDFFKRFAIKDEDKQAG”: the “soluble on expression in E. coli” value is “not soluble”.

As to “MGHHHHHHGGHMSLETKHSNRARSRKGALRGAVLAGALMALVGCQTSPAATTSSNTGGTNMQLQLTQEWDKTFPLSAKVEHRKVTFANRYGITLAADLYLPKNRGGDRLPAIVIGGPFGAVKEQSSGLYAQTMAERGFVTLAFDPSYTGESGGQPRNVASPDINTEDFSAAVDFISLLPEVNRERIGVIGICGWGGMALNAVAVDKRVKAVVTSTMYDMTRVMSKGYNDSVTLEQRTRTLEQLGQQRWKDAESGTPAYQPPYNELKGGEAQFLVDYHDYYMTPRGYHPRAVNSGNAWTMTTPLSFMNMPILTYIKEISPRPILLIHGERAHSRYFSETAYAAAAEPKELLIVPGASHVDLYDRLDRIPFDRIAGFFDEHLEGGS”, the “soluble on expression in E. coli” value was “soluble”.

Turning to “MGSDKIHHHHHHMTIMILREIIDELSYQLKQRRIINVCVSPAYTSVMLDDQSIGISHTITDGEIEGAGEIIGKNAYDVVINNLDSNLQRSLSLAILNALGSMIDFTQGDPINLYSGGKLCVFGFSPQLSYSNFDSVIVYDFMSTENKKVGNTEIKPYSSLSREVCSTALIFASSIVNNTIDRIISQISANHLILTGISSVDAPITLKNHGFEVLGKLFPVEKYRVFRTICEGGSNKLLSKYIMRYFKKL”, the “soluble on expression in E. coli” value is “not soluble”.

With “MAHHHHHHMRRYVKPSNIVGANISHPVDIFKMTVEHRVQCGSCHKVRYTRETDCCLSLPIPLDPNLKNSDGNPKQTEEEIFASRPHISLDACLGSLMQATDIDCRCSACGIPVTYCKTTRLRTFPDVLPIFLRRAQFDMETMSVRKLDVFVDVPLELDLEFLRGKGLQSDEVSMPEAREDLPHKPTSSSMKTVDEEALAMLLSMGIEETVARYALLQTGMNAERAVDYVFSRENIAEEAGLAEISTTASESQPVHVLDGPAKYRLHAMISHVGASAKTGHYVCHICDAQTGKWLLFNDEKVAESLNPPFSMAFLYFYKRVGK”, the “soluble on expression in E. coli” value is “soluble”.

On to “MGSDKIHHHHHHMQLITSLDIRNSEYLSKDRLISYHHQLRLIFSLGNQVKNVLEIGIFNSLLTDILKNNGYNVTTADVDPNLKPEMILDLTTDFSLPKDKFDAIVLFQVLEHFPYEQSEEALKKLAEATKKFLVISIPYCTQYLSFQIKSSFSGRPRYLLLSVPKFWSTKPVCDEHYWEMGLKGYPKKRILNSVANAGLTVKQEFIDPSYPYHYFLVLEKTNNI”, for which the “soluble on expression in E. coli” value is given as “not soluble”.

For the sequence “MGSDKIHHHHHHMDIRSLKLYLHLCDSLHFAKTAEQMHMSPSTLSRTLQRLEDEVGGKLFERDNRSVALTHAGKEFKLFAEHTLSQWLSLKGKVDPQQAQLHGQLSLYCSVTAAYSHLPKLLDRFRSIHPNVDIKLATGDAANAVNELNRNRADIAIIALPDNLASSLFFTAIDKVPLSLIVPTITCPVQQAISQANIAWQDLPYIVPEHGPGRQRADNWFKAMGFKPNIYAQVAGQEAIASMVALGCGVAISPEVVINNSPVRDRIQMLASPITIPAFELGFCCKKKRLEEAVLKAFLASWAIE”, the “soluble on expression in E. coli” value is on record as “not soluble”.

For “MSLTSVKEFPTIKAVRSFVIGGVGSGGDYHNVEGGHWLIDSPISTPCSRWEEYRKSRTSWGINVLGSFFVEIEASDGTVGYATGFGGPPACWLTHQHFERFLIGADPRRTNHLFEQMYRASMFYGRKGLPIAVISVIDLALWDLLGKIRKEPVYQMIGGATKDRLNFYCTGPEPTAAREMGFWGAKVPLPYCPDEGHVGMKKNIEFLRKHREAVGPDFPLMVDCYMSLNVSYTIELAEKCKDLDINWWEECLSPDDTDGFEQIKRAHPTLKFTTGEHEYSRFGFRKLVEGRNLDIIQPDVMWLGGLTELLRVSAMAAAYDIPVVPHASGPYSYHFVMSQPNTPFQEYLANSPDGKSVLPVFGDLFLDEIIPSKGFLTPKDLDQPGFGLTLNPAARAKMIPGEFWVNPAPLKALTSGAPAEEKKEGAVEAVVNKVQELTTSEGHHHHHH”, the “soluble on expression in E. coli” value was “soluble”.

As for “MTVATYEVEKQFLTYVKKIQNYGEALSLMFWDLRTGAPKKGVDQRSEVIGMLSSEVFAMSTSDEMGNYLTELEALISEDKLSETTKKMVEECRKEYDRNKKIPQAEYEAYVKLEAKAESVWEEAREKSDFEMFRPYLEQIVEFKKKFITYWGYETYKYNTLLDMYEPGITVEVLDHVFGQLRERIVPLVKEISESQKRLKTSALSEHFSKEKQKNFTLELLKQLNYDFEAGRLDETVHPFEITLNRGDVRITTRYDEKDFRMAVFGTIHECGHAVYEQNIAEKFEGTPLCSGTSMGIHESQSLFFENFIGRNKSFWKKNYDLLKEYSDGQFNDISVDEFYDAINESKPSFIRIEADELTYPLHVMVRYELEKELFDGTLQVKDLPAAWNDKMEAYLGIRPANDAQGVLQDVHWAGGSFGYFPSYALGYMYAAQFKQRMVKDIPNFDALLEEGNVTPIREWLTENIHQYGKTKKPLEILEDVTGEGLNANYLADYLEAKYREIYEL”, the “soluble on expression in E. coli” value is “not soluble”.

Turning to “MESINYQILKRSEKKLLGLFFDYFQHVIKMHETLNKLLCEADVTKREKLIQAIYEMEDFSNKSEFKLINESIWAISKNSPLTNHLRLTITIIMCSRDLERICDYANNLTKFVKHYQHLDVSIFSKLVNLHKSVLNNLKQTFASLQDKEKPLTIQFENVTKILTEFEQQYRVVLTEYYDKVKDEKLSDRIFLIDLILSVKHIERINDYCYNIIKAFLFVKNPEVFN”, the “soluble on expression in E. coli” value is “soluble”.

As to “MQPYLIPQPGIRVSLSELIEMRHRVREVQLFSTPSRRSPLIGLHHSKLRGRGVDFDQVRVYQAGDDVRSIDWRVTARTQEPHTKLFHEERERPIFILVEQSRRLFFGSGLMFKSVLAAQAAALIGWAALEHNDRVGGLVFGDNEHYEIKPRRSKQSLLQLLNRLVRVNQSLHTEIPADRDAFGTALRRAREVLRPGSLVIVLCDERALSDVAEQQLSLLSRHSDLLLLPLSDPLDRALPAAGLLRFAERGAQLELDTLNPELRRAYRQQGEDRSARWELLAQKLRVLLMPLSTQSELVEQLREYLNAQRPVKRK”, the “soluble on expression in E. coli” value is on record as “not soluble”.

Regarding “MDDDDTFTCRIQYINDADPFATTSSSYLEPMRPVTFKFRLHECISDQLQDVIRTLRAPHKAGDSSLQVYRGLEGGGGELHTYLDNDMTLTDQQEELDILKADTRRCSLVLRTQTSLRVKTIIDKLLNCSGRDQRRALFSLKQIFQDDQDLVHEFVQNQGLDCMIRLGRTADQNHQNYILRALGQLMLYVDGMNGIIAHNGTIQWLYELLDSPFRLVVKTALKLLLVFIEYNDNNALLVLTAIQTVDKSKGQADWSGLMKVLTEKDSPDAETLVYGMTVVNKALHGIPDRVVILEPLHEFHPQFPQQFLHGNHQSGRIFNRLHLLQLITTISGLFAAKIFRRRFSWFRKIKRTRFRKKPTRVKVKAPPPSFPTLFSPTESKTMDFSEVAPQEPEPEKVAPPPPRAKIEDTGSGNSFADMLQKRAARSAEANRGTFEKKESEAEMQWKKAAENLEKRPLIINDLDFSQFHGVEYQQDPLQLARMAKMKEMAENGMRGGPVGVGVPPPPPPPSAIPLPPRLQGGIPPPPPLGIIPPPPPPGNLLMNGINRGDISPAANKGVLKLHWKPATVEQPDGIPSLKQKGSFWNTVDGAVPTFDAKKIVQLFETKKEKEAPVKKVAETKTQTLSVLPLKRSQAINIGLTKLPPINVIPAAIMKFDSLVLNKDGIEKILKTMMPSPKEIEEIEIKAAENPEMTLGNAEQLLLKLSQIPCLLERLRLWLFTLDYKNSEKDIAEPLMDMQLAMKEMEESRTFKVAMGMLLAIGNSLSGTDIKGFYLDYLTKASEVKDPVYKHTLTYHLAEYMVEHFSEGTDLYSEFGAVARSARVDYKELLDNLIRLEKDCKSSWECLATINVAQRIHQLKAIYTVTKNRWHSFLLYFGYSVDEIPNQTPNDVFKMVTEFSLEYRTTRDKILQQRKRLAEKRERNKTRGKIWALEGSSAEGGAGDAAPLRRRNHGPGTVAPVQNSQQRHDDMSKMLASMADDNNSLRRRPAGSNGVNGRNFGGSVKDLVDTESPEDEILNGLVKAATLQTDPRDQRRRARQFNRKSLRRTRTLKMVDGQLETNY”, the “soluble on expression in E. coli” value is “not soluble”.

Regarding “MVRNRFIRKMKKNLFKSNHLSYLKSKWKVKITGQIKMDFDNLLNLEEQYYQEGFLEGQNENIKQSFLEGKQYGLQVGFQRFTLLGQMEGLCDVIESYGLHSPTLEKNIHTIRTLMKGLKMNNDDESVMEFERVLIKLKNKFRTILITLHRLVKDKRTPTVTFEVFEDVSRAIAGEIRGFVENEDIAKNKTKQNQAQSW”, the “soluble on expression in E. coli” value is “soluble”.

Consider “MSFDPLPGTLENLLEQTSLKWIFVGGKGGVGKTTTSCSLAIQMSKVRSSVLLISTDPAHNLSDAFGTKFGKDARKVPGFDNLSAMEIDPNLSIQEMTEQADQQNPNNPLSGMMQDLAFTIPGIDEALAFAEILKQIKSMEFDCVIFDTAPTGHTLRFLNFPTVLEKALGKLGGLSSRFGPMINQMGSIMGVNANEQDLFGKMESMRANISEVNKQFKNPDLTTFVCVCISEFLSLYETERMIQELTSYEIDTHNIVVNQLLLDPNTTCPQCMARRKMQQKYLAQIEELYEDFHVVKVPQVPAEVRGTEALKSFSEMLVKPYVYPTSGKE”, for which the “soluble on expression in E. coli” value is listed as “soluble”.

“FLEVNYYSRVLGMNRVMNVLLPEESDHNPNWTNDSLKDLPVLYLLHGMSGNHFDWQRKSDIERLLRQTKLAVIMPAADLAWYTNTDYGMNYFDAISQELPRKVASLFPQISTKRKKHFVAGMSMGGYGAFKLAFSSSYFSYAASLSGTLISSLNYPGFLDMEKQAYWKGIFGDLDKFSGSKNDIFELAKRQSNTGIELPKLYAWVGQQDFFYGANEKAIPRLRKMGYDVSYETNPGDHEWYYWSKYIENILQWLPINYQAEKRLS”: the “soluble on expression in E. coli” value is “not soluble”.
